From US20110027820A1

Target: Gal4 DNA binding domain (DBD) fused to the RXR ligand binding domain (GBD:RXR) (yeast; human) (UniProt P04386)
Assay: cell-based or functional assay

Substance: human nuclear receptor coactivator ACTR fused to the yeast Gal4 activation domain (ACTR:GAD) (from UniProt Q9Y6Q9 1-1424)
- increase in the sensitivity of chemical complementation (yeast growth in response to 9cRA) against GBD:RXR alone: 1000 fold
